Each block holds one binder with its values, some of them ahead of it.
Key:
Assay in all cases: SPOT array
[1] = target: T1, Fus1, P11710; details: median of control spots 1200
T1 sequence (P11710 432-512, looked up): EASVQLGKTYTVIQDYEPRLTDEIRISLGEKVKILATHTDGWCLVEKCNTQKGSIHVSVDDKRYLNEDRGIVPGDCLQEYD

[2] = target: T2, Hof1, Q05080; details: median of control spots 4086
T2 sequence (Q05080 590-669, looked up): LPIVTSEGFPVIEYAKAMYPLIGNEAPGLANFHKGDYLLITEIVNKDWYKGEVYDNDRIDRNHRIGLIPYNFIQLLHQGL

[3] = target: Myo3, P36006; details: median of control spots 468
[4] = target: T3, Lsb3, P43603; details: median of control spots 406
T3 sequence (P43603 385-451, looked up): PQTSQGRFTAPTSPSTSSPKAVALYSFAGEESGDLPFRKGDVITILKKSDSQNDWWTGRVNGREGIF

[5] = target: Bem1-2, P29366; details: median of control spots 4347
Bem1-2, P29366, sequence (P29366 139-227): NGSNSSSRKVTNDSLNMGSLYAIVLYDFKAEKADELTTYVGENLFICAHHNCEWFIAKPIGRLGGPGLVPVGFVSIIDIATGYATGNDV

[6] = target: T4, Sla1-3, P32790; details: median of control spots 5475
T4 sequence (P32790 344-424, looked up): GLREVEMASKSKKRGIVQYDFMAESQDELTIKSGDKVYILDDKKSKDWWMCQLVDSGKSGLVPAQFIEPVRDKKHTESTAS

[7] = target: Rvs167, P39743; details: median of control spots 2707
Rvs167, P39743, sequence (P39743 419-482): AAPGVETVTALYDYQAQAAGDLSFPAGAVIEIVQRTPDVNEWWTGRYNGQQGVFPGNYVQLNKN

[8] = target: T5, Sla1-2, P32790; details: median of control spots 712
T5 sequence (P32790 60-140, looked up): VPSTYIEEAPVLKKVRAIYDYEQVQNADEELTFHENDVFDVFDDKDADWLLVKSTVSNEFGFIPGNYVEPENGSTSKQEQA

[9] = target: T6, Lsb1, P53281; details: median of control spots 388
T6 sequence (P53281 45-122, looked up): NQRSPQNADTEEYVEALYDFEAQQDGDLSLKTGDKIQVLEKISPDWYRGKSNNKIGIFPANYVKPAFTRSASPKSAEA

[10] = target: Bem1-1, P29366; details: median of control spots 4282
Bem1-1, P29366, sequence (P29366 55-141): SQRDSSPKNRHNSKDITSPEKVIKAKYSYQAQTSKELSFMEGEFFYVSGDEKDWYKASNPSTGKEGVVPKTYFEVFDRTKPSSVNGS

[11] = target: T7, Bbc1, P47068; details: median of control spots 796
T7 sequence (P47068 1-78, looked up): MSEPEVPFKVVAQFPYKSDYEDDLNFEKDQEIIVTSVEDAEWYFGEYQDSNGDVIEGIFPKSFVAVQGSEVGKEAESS

[12] = target: T8, Myo5, Q04439; details: median of control spots 471
T8 sequence (Q04439 1072-1160, looked up): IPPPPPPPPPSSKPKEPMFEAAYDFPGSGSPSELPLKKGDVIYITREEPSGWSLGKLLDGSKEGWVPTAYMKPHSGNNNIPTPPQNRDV

[13] = target: Sho1, P40073; details: median of control spots 1148
Sho1, P40073, sequence (P40073 287-367): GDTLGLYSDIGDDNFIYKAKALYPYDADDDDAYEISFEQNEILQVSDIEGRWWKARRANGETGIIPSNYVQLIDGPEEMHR

[14] = target: T9, Bzz1-2, P38822; details: median of control spots 4538
T9 sequence (P38822 568-633, looked up): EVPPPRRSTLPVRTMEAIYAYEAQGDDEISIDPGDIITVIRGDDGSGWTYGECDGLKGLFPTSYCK

[15] = target: T10, Boi1, P38041; details: median of control spots 1162
T10 sequence (P38041 1-86, looked up): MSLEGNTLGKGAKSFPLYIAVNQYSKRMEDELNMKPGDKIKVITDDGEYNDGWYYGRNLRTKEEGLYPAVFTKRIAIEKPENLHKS

[16] = target: T11, Abp1, P15891; details: median of control spots 935
T11 sequence (P15891 535-592, looked up): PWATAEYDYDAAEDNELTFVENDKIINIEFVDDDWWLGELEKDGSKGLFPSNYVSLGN

[17] = target: T12, Boi2, P39969; details: median of control spots 1161
T12 sequence (P39969 32-116, looked up): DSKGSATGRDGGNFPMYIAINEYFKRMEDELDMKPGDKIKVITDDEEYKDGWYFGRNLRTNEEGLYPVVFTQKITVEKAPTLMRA

[18] = target: T13, Hse1, P38753; details: median of control spots 1727
T13 sequence (P38753 208-285, looked up): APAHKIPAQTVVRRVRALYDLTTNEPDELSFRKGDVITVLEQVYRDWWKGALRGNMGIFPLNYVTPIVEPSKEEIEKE

[19] = target: T14, Pin3, Q06449; details: median of control spots 2171
T14 sequence (Q06449 53-122, looked up): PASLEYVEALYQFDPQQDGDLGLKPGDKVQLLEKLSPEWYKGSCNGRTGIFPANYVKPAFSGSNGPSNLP

[20] = target: T15, Nbp2, Q12163; details: median of control spots 357
T15 sequence (Q12163 103-180, looked up): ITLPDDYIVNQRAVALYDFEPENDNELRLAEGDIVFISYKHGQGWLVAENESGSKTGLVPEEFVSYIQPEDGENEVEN

[21] = target: T16, Cdc25, P04821; details: median of control spots 969
T16 sequence (P04821 50-136, looked up): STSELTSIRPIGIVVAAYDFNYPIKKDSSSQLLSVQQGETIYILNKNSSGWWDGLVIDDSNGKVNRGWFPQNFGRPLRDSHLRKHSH

[22] = target: T17, Lsb4, P32793; details: median of control spots 397
T17 sequence (P32793 402-468, looked up): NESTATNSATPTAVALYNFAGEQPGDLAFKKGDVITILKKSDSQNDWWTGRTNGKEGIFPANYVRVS

[23] = target: T18, Cyk3, Q07533; details: median of control spots 1451
T18 sequence (Q07533 1-83, looked up): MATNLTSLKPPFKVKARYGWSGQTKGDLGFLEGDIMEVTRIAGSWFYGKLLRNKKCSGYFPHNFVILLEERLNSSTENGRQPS

[24] = target: T19, Bud14, P27637; details: median of control spots 956
T19 sequence (P27637 247-328, looked up): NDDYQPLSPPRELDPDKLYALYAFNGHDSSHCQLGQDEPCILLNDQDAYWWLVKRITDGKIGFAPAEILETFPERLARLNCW

[25] = target: T20, Bzz1-1, P38822; details: median of control spots 4446
T20 sequence (P38822 478-572, looked up): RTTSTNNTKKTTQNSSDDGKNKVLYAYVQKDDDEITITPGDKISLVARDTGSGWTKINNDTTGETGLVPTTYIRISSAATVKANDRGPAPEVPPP

[26] = target: T21, Pex13, P80667; details: median of control spots 1341
T21 sequence (P80667 295-386, looked up): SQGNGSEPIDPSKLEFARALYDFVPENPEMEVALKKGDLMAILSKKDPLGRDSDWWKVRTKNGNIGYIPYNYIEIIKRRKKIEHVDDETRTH

[27] = target: GST; details: median of control spots 978

Binder: KIRRSSLMIPNPQQF
SPOT intensity [1]: 21
SPOT intensity [2]: 0
SPOT intensity [3]: 35
SPOT intensity [4]: 14
SPOT intensity [5]: 3
SPOT intensity [6]: 9
SPOT intensity [7]: 0
SPOT intensity [8]: 4
SPOT intensity [9]: 12
SPOT intensity [10]: 0
SPOT intensity [11]: 13
SPOT intensity [12]: 11
SPOT intensity [13]: 47
SPOT intensity [14]: 0
SPOT intensity [15]: 2
SPOT intensity [16]: 105
SPOT intensity [17]: 1
SPOT intensity [18]: 1
SPOT intensity [19]: 142
SPOT intensity [20]: 0
SPOT intensity [21]: 12
SPOT intensity [22]: 3
SPOT intensity [23]: 2
SPOT intensity [24]: 5
SPOT intensity [25]: 1
SPOT intensity [26]: 30
SPOT intensity [27]: 3

Binder: RVTRKRPREPKSTND
SPOT intensity [1]: 34
SPOT intensity [2]: 3
SPOT intensity [3]: 19
SPOT intensity [4]: 5
SPOT intensity [5]: 0
SPOT intensity [6]: 47
SPOT intensity [7]: 0
SPOT intensity [8]: 2
SPOT intensity [9]: 9
SPOT intensity [10]: 2
SPOT intensity [11]: 217
SPOT intensity [12]: 3
SPOT intensity [13]: 173
SPOT intensity [14]: 11
SPOT intensity [15]: 10
SPOT intensity [16]: 167
SPOT intensity [17]: 2
SPOT intensity [18]: 12
SPOT intensity [19]: 3
SPOT intensity [20]: 40
SPOT intensity [21]: 28
SPOT intensity [22]: 10
SPOT intensity [23]: 4
SPOT intensity [24]: 9
SPOT intensity [25]: 0
SPOT intensity [26]: 0
SPOT intensity [27]: 2

Other lines, results leading:

SPOT intensity [1]: 2
SPOT intensity [2]: 3
SPOT intensity [3]: 0
SPOT intensity [4]: 0
SPOT intensity [5]: 3
SPOT intensity [6]: 18
SPOT intensity [7]: 0
SPOT intensity [8]: 0
SPOT intensity [9]: 0
SPOT intensity [10]: 0
SPOT intensity [11]: 0
SPOT intensity [12]: 0
SPOT intensity [13]: 1
SPOT intensity [14]: 0
SPOT intensity [15]: 1
SPOT intensity [16]: 0
SPOT intensity [17]: 0
SPOT intensity [18]: 1
SPOT intensity [19]: 32
SPOT intensity [20]: 0
SPOT intensity [21]: 1
SPOT intensity [22]: 1
SPOT intensity [23]: 0
SPOT intensity [24]: 0
SPOT intensity [25]: 0
SPOT intensity [26]: 10
SPOT intensity [27]: 0
Binder: WTQRRGPLVVYAEDN

SPOT intensity [1]: 13
SPOT intensity [2]: 6
SPOT intensity [3]: 35
SPOT intensity [4]: 18
SPOT intensity [5]: 800
SPOT intensity [6]: 155
SPOT intensity [7]: 4
SPOT intensity [8]: 0
SPOT intensity [9]: 1190
SPOT intensity [10]: 0
SPOT intensity [11]: 68
SPOT intensity [12]: 4
SPOT intensity [13]: 90
SPOT intensity [14]: 522
SPOT intensity [15]: 3
SPOT intensity [16]: 259
SPOT intensity [17]: 0
SPOT intensity [18]: 76
SPOT intensity [19]: 26
SPOT intensity [20]: 219
SPOT intensity [21]: 43
SPOT intensity [22]: 26
SPOT intensity [23]: 2
SPOT intensity [24]: 10
SPOT intensity [25]: 52
SPOT intensity [26]: 27
SPOT intensity [27]: 0
Binder: FIRKRAPTPPAPSRS

From PMC2756588
